Assay results taken from publication PMC2764445.
Read-outs that look alike come from different tables or passages of the source.

Tests used:
[1] = target: T1, Hfq (His-tagged; natural Hfq used in some experiments) (UniProt P0A6X3 1-102); assay: fluorescence anisotropy
[2] = target: T1, Hfq (His-tagged; natural Hfq used in …); assay: EMSA
[3] = target: T1, Hfq (His-tagged; natural Hfq used in …); assay: EMSA; remark: listed apart in the source

T1 sequence (P0A6X3 whole entry): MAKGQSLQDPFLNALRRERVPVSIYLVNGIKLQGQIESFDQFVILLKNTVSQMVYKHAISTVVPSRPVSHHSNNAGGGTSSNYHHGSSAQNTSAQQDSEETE

Binder | binding result [3] | other results
CGAAUUUUUUAAGUGC (ssRNA) [D16-FAM] | – | Kd [1]: 23 ± 4 nM
GCACUUAAAAAAUUCG (ssRNA) [R16] | – | binding result [2]: binds
CCCCTCGAATTTTTTAAGTGCAGGGG (ssDNA) [dMB-R16] | no binding | –
CCAGGGCACTTAAAAAATTCGCCTGG (ssDNA) [dMB-D16] | no binding | –
